This assay has as its target T1, human type α platelet derived growth factor receptor (T11 gene product) (human, UniProt P16234 24-1089).
T1 construct: In western blots and immunoprecipitations it came from cell lysates; also called type α PDGF-R; α PDGFR
Nature of the assay: Scatchard analysis of PDGF-BB binding to 32D-αR transfectants.

T1 sequence (P16234 24-1089): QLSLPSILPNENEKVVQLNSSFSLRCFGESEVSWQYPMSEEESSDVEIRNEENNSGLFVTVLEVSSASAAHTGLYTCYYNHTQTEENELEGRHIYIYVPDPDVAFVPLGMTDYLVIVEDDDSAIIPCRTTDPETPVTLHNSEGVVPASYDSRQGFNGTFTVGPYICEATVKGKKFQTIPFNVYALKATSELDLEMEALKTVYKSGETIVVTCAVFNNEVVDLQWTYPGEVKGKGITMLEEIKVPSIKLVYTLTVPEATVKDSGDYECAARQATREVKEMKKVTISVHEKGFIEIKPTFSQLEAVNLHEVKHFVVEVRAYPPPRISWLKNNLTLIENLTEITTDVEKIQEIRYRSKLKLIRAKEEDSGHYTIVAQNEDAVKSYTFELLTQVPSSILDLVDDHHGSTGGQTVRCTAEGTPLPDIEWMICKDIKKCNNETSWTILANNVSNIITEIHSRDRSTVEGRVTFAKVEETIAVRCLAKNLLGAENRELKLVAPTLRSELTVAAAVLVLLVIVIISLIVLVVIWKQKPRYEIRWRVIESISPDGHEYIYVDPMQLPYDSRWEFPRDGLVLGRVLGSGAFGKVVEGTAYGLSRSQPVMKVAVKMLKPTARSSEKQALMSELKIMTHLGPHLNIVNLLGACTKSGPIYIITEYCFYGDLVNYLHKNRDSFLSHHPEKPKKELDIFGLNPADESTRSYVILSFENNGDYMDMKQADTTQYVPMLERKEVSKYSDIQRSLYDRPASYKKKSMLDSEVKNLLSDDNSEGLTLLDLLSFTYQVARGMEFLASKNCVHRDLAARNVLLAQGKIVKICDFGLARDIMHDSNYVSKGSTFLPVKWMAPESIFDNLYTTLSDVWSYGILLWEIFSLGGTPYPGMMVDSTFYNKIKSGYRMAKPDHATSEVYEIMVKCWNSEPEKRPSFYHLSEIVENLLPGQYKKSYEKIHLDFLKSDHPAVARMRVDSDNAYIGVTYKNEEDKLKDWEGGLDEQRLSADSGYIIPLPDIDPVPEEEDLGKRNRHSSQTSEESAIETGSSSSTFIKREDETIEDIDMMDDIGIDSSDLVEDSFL

B1: recombinant PDGF-BB (ligand, UniProt P01127 82-190, looked up)
chain: SLGSLTIAEPAMIAECKTRTEVFEISRRLIDRTNANFLVWPPCVEVQRCSGCCNNRNVQCRPTQVQLRPVQVRKIEIVRKKPIFKKATVTLEDHLACKCETVAAARPVT
notes: Homodimer of B chains; also called BB homodimer
By Kd is commonly meant a measure of binding affinity in units of concentration. Low values mean a tighter complex, high ones a looser complex. In turn, B1 displayed a Kd of 0.4 nM.

These data come from patent US7427671 (US Dept. of Health and Human Services, dated 2008).
